We go through two proteins from paper PMC13170675, “A Wnt-induced conformational phospho-switch in DVL3 controls association with Frizzled receptors and Wnt/β-catenin signaling” (Science Advances, 2026).

This data set concerns the molecule itself. In words: native MS; native ESI-MS, 200 mM ammonium acetate buffer (pH 7.4); monomeric species are the main ones, homodimeric species detected.

B1: hDVL3 PDZ-IDR2-DEP (amino acids 243 to 496), nonphosphorylated (domain or fragment, human, UniProt Q92997 243-496, looked up)
chain: MSLNIITVTLNMEKYNFLGISIVGQSNERGDGGIYIGSIMKGGAVAADGRIEPGDMLLQVNEINFENMSNDDAVRVLREIVHKPGPITLTVAKCWDPSPRGCFTLPRSEPIRPIDPAAWVSHTAAMTGTFPAYGMSPSLSTITSTSSSITSSIPDTERLDDFHLSIHSDMAAIVKAMASPESGLEVRDRMWLKITIPNAFIGSDVVDWLYHNVEGFTDRREARKYASNLLKAGFIRHTVNKITFSEQCYYIFGD
notes: human Dishevelled 3 (DVL3), PDZ domain, IDR2 and DEP domain, amino acids 243 to 496; source: E. coli BL21 (DE3), purified (Ni-NTA, TEV cleavage, second Ni-NTA, anion exchange, SEC); not shown: His6, N-terminal, cleaved
As to B1, the binding result was “binds”.

B2: phosphorylated hDVL3 PDZ-IDR2-DEP (amino acids 243 to 496) (domain or fragment, human, UniProt Q92997 243-496, looked up)
chain: B1 chain
modifications: 8 to 19 phosphates present (native ESI-MS), on S/T residues of IDR2, by CK1ε
notes: human Dishevelled 3 (DVL3), PDZ domain, phosphorylated IDR2 and DEP domain, amino acids 243 to 496; also called PDZ-pIDR2-DEP; source: E. coli BL21 (DE3), purified; phosphorylated by CK1ε; not shown: His6, N-terminal, cleaved
As for B2, the binding result is given as “binds”.
